To fix the notation:
B1: GLS3000 N30A (antibody, name in Kabat numbering, V domains shown)
VH: QVQLVESGGGVVQPGRSLRLSCAASGFTFSNAWMHWVRQAPGKGLEWVAQIKAKSNNYATYYAESVKGRFTISRDDSKNSLYLQMNSLKTEDTAVYYCRYVHYGAYYGVDAWGQGTTVTVSS
VL: DIVMTQSPLSLPVTPGEPASISCRSSQSLVHSNRATYLHWYQQKPGQAPRLLIYKVSNRFSGVPDRFSGSGSGTDFTLKISRVEAEDVGVYYCGQGTQVPYTFGQGTKLEIK
notes: one-arm format as m2
B2: GLS3000 N30T (antibody, name in Kabat numbering, V domains shown)
VH: B1 VH
VL: B1 VL with A35T
notes: one-arm format as m2
B3: GLS3000 N30R (antibody, name in Kabat numbering, V domains shown)
VH: B1 VH
VL: B1 VL with A35R
notes: one-arm format as m2
B4: GLS3000 N30L (antibody, name in Kabat numbering, V domains shown)
VH: B1 VH
VL: B1 VL with A35L
notes: one-arm format as m2
B5: GLS3000 N30K (antibody, name in Kabat numbering, V domains shown)
VH: B1 VH
VL: B1 VL with A35K
notes: one-arm format as m2
B6: GLS3000 N30G (antibody, name in Kabat numbering, V domains shown)
VH: B1 VH
VL: B1 VL with A35G
notes: one-arm format as m2
B7: GLS3000 N30M (antibody, name in Kabat numbering, V domains shown)
VH: B1 VH
VL: B1 VL with A35M
notes: one-arm format as m2
B8: GLS3000 N30D (antibody, name in Kabat numbering, V domains shown)
VH: B1 VH
VL: B1 VL with A35D
notes: one-arm format as m2
B9: GLS3000 N30F (antibody, name in Kabat numbering, V domains shown)
VH: B1 VH
VL: B1 VL with A35F
notes: one-arm format as m2
B10: GLS3000 N30H (antibody, name in Kabat numbering, V domains shown)
VH: B1 VH
VL: B1 VL with A35H
notes: one-arm format as m2
B11: GLS3000 N30Q (antibody, name in Kabat numbering, V domains shown)
VH: B1 VH
VL: B1 VL with A35Q
notes: one-arm format as m2
B12: GLS3000 N30I (antibody, name in Kabat numbering, V domains shown)
VH: B1 VH
VL: B1 VL with A35I
notes: one-arm format as m2
B13: GLS3000 N30P (antibody, name in Kabat numbering, V domains shown)
VH: B1 VH
VL: B1 VL with A35P
notes: one-arm format as m2
B14: GLS3000 N30E (antibody, name in Kabat numbering, V domains shown)
VH: B1 VH
VL: B1 VL with A35E
notes: one-arm format as m2
B15: GLS3000 N30V (antibody, name in Kabat numbering, V domains shown)
VH: B1 VH
VL: B1 VL with A35V
notes: one-arm format as m2
B16: GLS3000 N30S (antibody, name in Kabat numbering, V domains shown)
VH: B1 VH
VL: B1 VL with A35S
notes: one-arm format as m2

Positions count from the first letter of the chain named.

For this assay, the target named is CD3ε homodimer protein (human, UniProt P07766 23-126, limits assumed). In words: SPR, immobilized CD3ε homodimer.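 Further: biacore T200 surface plasmon resonance at 25 °C, antibody variants flowed as analytes over amine-coupled CD3ε homodimer on a CM4 chip, variant binding amount divided by that of GLS3000 antibody.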
CD3ε homodimer protein, sequence (P07766 23-126 limits assumed): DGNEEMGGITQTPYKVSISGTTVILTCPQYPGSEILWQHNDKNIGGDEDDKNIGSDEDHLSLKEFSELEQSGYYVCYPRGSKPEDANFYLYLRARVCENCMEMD
For B1, the “ratio of amounts bound (vs GLS3000)” value came out at 0.5.

Turning to B2, the “ratio of amounts bound (vs GLS3000)” value was determined as 0.29.

Regarding B3, the “ratio of amounts bound (vs GLS3000)” value stood at 1.86.

B4: the “ratio of amounts bound (vs GLS3000)” value stood at 0.7.

Consider B5, for which the “ratio of amounts bound (vs GLS3000)” value came out at 1.65.

Turning to B6, the “ratio of amounts bound (vs GLS3000)” value was 0.47.

Consider B7, for which the “ratio of amounts bound (vs GLS3000)” value is 0.8.

On to B8, for which the “ratio of amounts bound (vs GLS3000)” value was 0.34.

For B9, the “ratio of amounts bound (vs GLS3000)” value stood at 1.1.

On to B10, for which the “ratio of amounts bound (vs GLS3000)” value is 0.98.

In the case of B11, the “ratio of amounts bound (vs GLS3000)” value turned out to be 0.87.

On to B12, for which the “ratio of amounts bound (vs GLS3000)” value was found to be 0.61.

With B13, the “ratio of amounts bound (vs GLS3000)” value is 0.31.

Consider B14, for which the “ratio of amounts bound (vs GLS3000)” value stood at 0.44.

Regarding B15, the “ratio of amounts bound (vs GLS3000)” value was determined as 0.61.

Turning to B16, the “ratio of amounts bound (vs GLS3000)” value came out at 0.29.

The values are drawn from patent US20220040297A1 (Chugai, published 2022).
